# B1: Hsp70 C-terminal peptide GPTIEEVD (residues 634-641), biotin-SGSG at the N terminus [modified: biotin at the N terminus; biotin at the N terminus] [not stated] / Carboxy-terminus of Hsc70-interacting protein (CHIP), His-tagged, wild type … (parent complex)
# chain 1: SGSGGPTIEEVD
# chain 2: MKGKEEKEGGARLGAGGGSPEKSPSAQELKEQGNRLFVGRKYPEAAACYGRAITRNPLVAVYYTNRALCYLKMQQHEQALADCRRALELDGQSVKAHFFLGQCQLEMESYDEAIANLQRAYSLAKEQRLNFGDDIPSALRIAKKKRWNSIEERRIHQESELHSYLSRLIAAERERELEECQRNHEGDEDDSHVRAQQACIEAKHDKYMADMDELFSQVDEKRKKRDIPDYLCGKISFELMREPCITPSGITYDRKDIEEHLQRVGHFDPVTRSPLTQEQLIPNLAMKEVIDAFISENGWVEDY
# B2: Carboxy-terminus of Hsc70-interacting protein (CHIP), His-tagged, wild type [human] / GST-IRF-1 (pDEST-15-codon optimized IRF-1) [not stated] (parent complex)
# chain 1: B1 chain 2
# chain 2: MPITRMRMRPWLEMQINSNQIPGLIWINKEEMIFQIPWKHAAKHGWDINKDACLFRSWAIHTGRYKAGEKEPDPKTWKANFRCAMNSLPDIEEVKDQSRNKGSSAVRVYRMLPPLTKNQRKERKSKSSRDAKSKAKRKSCGDSSPDTFSDGLSSSTLPDDHSSYTVPGYMQDLEVEQALTPALSPCAVSSTLPDWHIPVEVVPDSTSDLYNFQVSPMPSTSEATTDEDEEGKLPEDIMKLLEQSEWQPTNVDGKGYLLNEPGVQPTSVYGDFSCKEEPEIDSPGGDIGLSLQRVFTDLKNMDATWLDSLLTPVRLPSIQAIPCAP
# B3: Carboxy-terminus of Hsc70-interacting protein (CHIP), untagged, wild type [human] / His-tagged UbcH5a [not stated] (parent complex)
# chain 1: B1 chain 2
# chain 2: not shown
# B4: GST-IRF-1 (pDEST-15-codon optimized IRF-1) [not stated] / Carboxy-terminus of Hsc70-interacting protein (CHIP), His-tagged, wild type [human] (parent complex)
# chain 1: B2 chain 2
# chain 2: B1 chain 2
# Variants of: B1
# Assay: microtitre-well binding assay (streptavidin-HRP detection); value read at the highest dose, 20 uM Hsp70 wt peptide; His-CHIP coated on wells, biotin peptide in the mobile phase; parent: 45; read off a plot
row,response [RLU],Variant
1,~7,chain 2 K30A

# Variants of: B2
# Assay: microtitre-well binding assay (luminometer, anti-CHIP antibody); upper panel; value read at the highest dose, about 130 ng CHIP; GST-IRF-1 immobilized, His-CHIP in the mobile phase; parent: 18; read off a plot
row,response [RLU],Variant
1,~12,chain 1 K30A

# Variants of: B3
# Assay: AlphaScreen; value read at the highest dose, 100 ng CHIP; untagged CHIP on protein A acceptor beads through anti-CHIP N-term pAb, His-UbcH5a on Nickel-chelate donor beads; parent: 2.3e+04; read off a plot
row,response [AlphaScreen Units],Variant
1,~9000,chain 1 K30A

# Variants of: B4
# Assay: microtitre-well binding assay; lower panel; value read at the highest dose, about 130 ng GST-IRF-1; His-CHIP coated on wells, GST-IRF-1 in the mobile phase; parent: 120; read off a plot
row,response [RLU],Variant
1,~110,chain 2 K30A

# From article PMC4638040 (2015)
